The labels stand for the following.
B1: Mu_19F07_VH (SEQ ID NO: 47)_Y33A (antibody, V domains shown)
VH: EVKLVESEGGLVQPGSSMKLSCTASGFTFSDYAMAWVRQVPEKGLEWVANINYDGSSTYYLDSLKSRFIISRDNAKNILYLQMSSLKSEDTATYYCARGLTWDFDVWGTGTTVTVSS
VL: DIVMTQSHKFMSPSVGDRVSITCKASQDVDTAVAWYQQKPGQSPKLLIYLASTRHTGVPDRFTGSGSGTDFTLTISNVQSEDLADYFCQQYSRFPLTFGAGTKLELKR
B2: Mu_09E09_VL (SEQ ID NO: 37)_G91A (antibody, V domains shown)
VH: DVKLVESGEGLVKPGGSLKLSCAASGFTFSSYAMSWVRQTPEKRLEWVAYISSGGDYIYYADTVKGRFTISRDNARNTLYLQMSSLKSEDTAMYYCTRDPITGTFAYWGQGTLVTVSA
VL: DLQMTQTTSSLSASLGDRVTISCRASQDINNYLNWYQQKPDGTVKLLIYYTSTLHSGVPSRFSGSGSGTDYSLTISNLEQEDIATYFCQQANTLPWTFGGGTKLEIKR
B3: Mu_10F07_VL (SEQ ID NO: 41)_T97A (antibody, V domains shown)
VH: DVKLVESGEGLVKPGGSLKLSCAASGFTFSSYAMSWVRQTPEKRLEWVTYISSGGDYFYYADTVKGRFTISRDNARNTLYLQMSSLKSEDTAMYYCTRDPITGTFAYWGQGTLVTVSA
VL: DIQMTQTTSSLSASLGDRVTISCRASQDITNYLNWYQQKPDGTVKLLIYYTSTLHSGVPSRFSGSGSGTDFSLTISNLEQEDIATYFCQQGHMLPWAFGGGTKLEIKR
B4: Mu_10F07_VH (SEQ ID NO: 39)_I101A (antibody, V domains shown)
VH: DVKLVESGEGLVKPGGSLKLSCAASGFTFSSYAMSWVRQTPEKRLEWVTYISSGGDYFYYADTVKGRFTISRDNARNTLYLQMSSLKSEDTAMYYCTRDPATGTFAYWGQGTLVTVSA
VL: DIQMTQTTSSLSASLGDRVTISCRASQDITNYLNWYQQKPDGTVKLLIYYTSTLHSGVPSRFSGSGSGTDFSLTISNLEQEDIATYFCQQGHMLPWTFGGGTKLEIKR
B5: Mu_10F07_VL (SEQ ID NO: 41)_T53A (antibody, V domains shown)
VH: DVKLVESGEGLVKPGGSLKLSCAASGFTFSSYAMSWVRQTPEKRLEWVTYISSGGDYFYYADTVKGRFTISRDNARNTLYLQMSSLKSEDTAMYYCTRDPITGTFAYWGQGTLVTVSA
VL: DIQMTQTTSSLSASLGDRVTISCRASQDITNYLNWYQQKPDGTVKLLIYYTSALHSGVPSRFSGSGSGTDFSLTISNLEQEDIATYFCQQGHMLPWTFGGGTKLEIKR
B6: Mu_10F07_VH (SEQ ID NO: 39)_Y107A (antibody, V domains shown)
VH: DVKLVESGEGLVKPGGSLKLSCAASGFTFSSYAMSWVRQTPEKRLEWVTYISSGGDYFYYADTVKGRFTISRDNARNTLYLQMSSLKSEDTAMYYCTRDPITGTFAAWGQGTLVTVSA
VL: DIQMTQTTSSLSASLGDRVTISCRASQDITNYLNWYQQKPDGTVKLLIYYTSTLHSGVPSRFSGSGSGTDFSLTISNLEQEDIATYFCQQGHMLPWTFGGGTKLEIKR
B7: Mu_10F07_VH (SEQ ID NO: 39)_D99A (antibody, V domains shown)
VH: DVKLVESGEGLVKPGGSLKLSCAASGFTFSSYAMSWVRQTPEKRLEWVTYISSGGDYFYYADTVKGRFTISRDNARNTLYLQMSSLKSEDTAMYYCTRAPITGTFAYWGQGTLVTVSA
VL: DIQMTQTTSSLSASLGDRVTISCRASQDITNYLNWYQQKPDGTVKLLIYYTSTLHSGVPSRFSGSGSGTDFSLTISNLEQEDIATYFCQQGHMLPWTFGGGTKLEIKR
B8: Mu_10F07_VL (SEQ ID NO: 41)_L33A (antibody, V domains shown)
VH: DVKLVESGEGLVKPGGSLKLSCAASGFTFSSYAMSWVRQTPEKRLEWVTYISSGGDYFYYADTVKGRFTISRDNARNTLYLQMSSLKSEDTAMYYCTRDPITGTFAYWGQGTLVTVSA
VL: DIQMTQTTSSLSASLGDRVTISCRASQDITNYANWYQQKPDGTVKLLIYYTSTLHSGVPSRFSGSGSGTDFSLTISNLEQEDIATYFCQQGHMLPWTFGGGTKLEIKR
B9: Mu_09E09_VL (SEQ ID NO: 37)_N92A (antibody, V domains shown)
VH: DVKLVESGEGLVKPGGSLKLSCAASGFTFSSYAMSWVRQTPEKRLEWVAYISSGGDYIYYADTVKGRFTISRDNARNTLYLQMSSLKSEDTAMYYCTRDPITGTFAYWGQGTLVTVSA
VL: DLQMTQTTSSLSASLGDRVTISCRASQDINNYLNWYQQKPDGTVKLLIYYTSTLHSGVPSRFSGSGSGTDYSLTISNLEQEDIATYFCQQGATLPWTFGGGTKLEIKR
B10: Mu_10F07_VL (SEQ ID NO: 41)_Y50A (antibody, V domains shown)
VH: DVKLVESGEGLVKPGGSLKLSCAASGFTFSSYAMSWVRQTPEKRLEWVTYISSGGDYFYYADTVKGRFTISRDNARNTLYLQMSSLKSEDTAMYYCTRDPITGTFAYWGQGTLVTVSA
VL: DIQMTQTTSSLSASLGDRVTISCRASQDITNYLNWYQQKPDGTVKLLIYATSTLHSGVPSRFSGSGSGTDFSLTISNLEQEDIATYFCQQGHMLPWTFGGGTKLEIKR
B11: Mu_10F07_VL (SEQ ID NO: 41)_W96A (antibody, V domains shown)
VH: DVKLVESGEGLVKPGGSLKLSCAASGFTFSSYAMSWVRQTPEKRLEWVTYISSGGDYFYYADTVKGRFTISRDNARNTLYLQMSSLKSEDTAMYYCTRDPITGTFAYWGQGTLVTVSA
VL: DIQMTQTTSSLSASLGDRVTISCRASQDITNYLNWYQQKPDGTVKLLIYYTSTLHSGVPSRFSGSGSGTDFSLTISNLEQEDIATYFCQQGHMLPATFGGGTKLEIKR
B12: Mu_09E09_VL (SEQ ID NO: 37)_L94A (antibody, V domains shown)
VH: DVKLVESGEGLVKPGGSLKLSCAASGFTFSSYAMSWVRQTPEKRLEWVAYISSGGDYIYYADTVKGRFTISRDNARNTLYLQMSSLKSEDTAMYYCTRDPITGTFAYWGQGTLVTVSA
VL: DLQMTQTTSSLSASLGDRVTISCRASQDINNYLNWYQQKPDGTVKLLIYYTSTLHSGVPSRFSGSGSGTDYSLTISNLEQEDIATYFCQQGNTAPWTFGGGTKLEIKR
B13: Mu_09E09_VL (SEQ ID NO: 37)_W96A (antibody, V domains shown)
VH: DVKLVESGEGLVKPGGSLKLSCAASGFTFSSYAMSWVRQTPEKRLEWVAYISSGGDYIYYADTVKGRFTISRDNARNTLYLQMSSLKSEDTAMYYCTRDPITGTFAYWGQGTLVTVSA
VL: DLQMTQTTSSLSASLGDRVTISCRASQDINNYLNWYQQKPDGTVKLLIYYTSTLHSGVPSRFSGSGSGTDYSLTISNLEQEDIATYFCQQGNTLPATFGGGTKLEIKR

For the assay, the target named is T1, ANTIBODY EXPRESSION CONTROL.
T1 construct: also called mouse anti-canine antibody (capture reagent of the expression control ELISA)
As to the kind of experiment: SPR Biacore, expression control. As for the experimental part:
The affinity with which candidate mAbs bind canine, feline, and human (SEQ ID NO: 122; Human_OSMR) (R&D Systems, Minneapolis, Minn.) OSMR was determined using surface plasmon resonance (SPR) on a Biacore system (Biacore Life Sciences (GE Healthcare), Uppsala, Sweden). To avoid affinity differences associated with differential surface preparation that can occur when immobilizing antibodies to surfaces; OSMR from each species was directly conjugated to individual surfaces. Immobilization was obtained by amine coupling 5 μg/mL OSMR using N-hydroxysuccinimide (NHS)/1-Ethyl-3-(3-dimethylaminopropyl) carbodiimide (EDC) chemistry. Chips were quenched with ethanolamine and the affinity with which all candidate mAbs bound to the immobilized OSMR was evaluated. All curves were fit to a 1:1 model. […] Results for affinity measurements are described herein.
Data from an ELISA represents an equilibrium state where the antibody is allowed to associate and dissociate over a one-hour period resulting in steady-state binding. Using Biacore, the target protein is immobilized to a surface and the antibody is passed over this surface in a mobile liquid phase. Protein-protein interaction is determined from changes in the surface resonance which allows for calculation of association (kₐ), disassociation (kd), and affinity constant (KD). While not wishing to be bound to one hypothesis we present data from ELISA and Biacore experiments, using the same preparation of antibody, that may result in agreement between the two methods with respect to binding but also may show contradictory results due to the nature of the binding kinetics and different assay dynamics. The data presented in Table A (in combination with experimental results from yeast display mutational analysis in Example 21) allow for the definition of a structure:function relationship to be defined between the anti-OSMR antibodies described here and their ability to bind and block IL-31 and OSM-mediated signaling through the OSMR receptor.
One may read the Kd as the equilibrium constant for the complex coming apart. For orientation: koff means the rate constant with which the complex falls apart. The term kon denotes the rate constant with which the complex forms. Turning to B1, the Kd turned out to be 0.202 nM, the koff stood at 6.08e-05 s⁻¹ and the kon is 301000 M⁻¹ s⁻¹.

For B2, the Kd worked out at 0.306 nM, the koff is 8.96e-05 s⁻¹ and the on-rate (kon) is 292000 M⁻¹ s⁻¹.

With B3, the dissociation constant (Kd) amounted to 0.805 nM, the koff came out at 8.07e-05 s⁻¹ and the kon came to 100000 M⁻¹ s⁻¹.

Consider B4, for which the Kd is 0.445 nM, the koff came out at 4.49e-05 s⁻¹ and the kon turned out to be 101000 M⁻¹ s⁻¹.

In the case of B5, the Kd worked out at 2.07 nM, the off-rate (koff) worked out at 0.000275 s⁻¹ and the kon was found to be 132000 M⁻¹ s⁻¹.

B6: the Kd was determined as 0.446 nM, the koff amounted to 4.44e-05 s⁻¹ and the kon came to 99500 M⁻¹ s⁻¹.

As for B7, the Kd is 1.01 nM, the koff came out at 0.000118 s⁻¹ and the kon is 117000 M⁻¹ s⁻¹.

B8: the Kd amounted to 0.812 nM, the koff amounted to 8.43e-05 s⁻¹ and the kon is 104000 M⁻¹ s⁻¹.

Turning to B9, the Kd amounted to 0.257 nM, the koff was found to be 7.59e-05 s⁻¹ and the kon was determined as 296000 M⁻¹ s⁻¹.

Consider B10, for which the Kd is 0.6 nM, the koff was determined as 0.000105 s⁻¹ and the kon is 174000 M⁻¹ s⁻¹.

For B11, the dissociation constant (Kd) is 0.884 nM, the koff worked out at 9.49e-05 s⁻¹ and the kon turned out to be 107000 M⁻¹ s⁻¹.

On to B12, for which the Kd was found to be 0.25 nM, the koff came out at 7.63e-05 s⁻¹ and the kon worked out at 305000 M⁻¹ s⁻¹.

As for B13, the dissociation constant Kd was found to be 0.345 nM, the koff stood at 9.76e-05 s⁻¹ and the kon stood at 283000 M⁻¹ s⁻¹.

These data come from patent US20220177594A1 (ZOETIS SERVICES, published 2022).
